From paper PMC4205851, “Protein-tyrosine phosphorylation interaction network in Bacillus subtilis reveals new substrates, kinase activators and kinase cross-talk” (Frontiers in Microbiology, 2014) come the findings set out here.

The target of this test is T1, Strep-tagged MinD (B. subtilis 168, UniProt Q01464 1-268).
T1 construct: MinD ATPase of B. subtilis 168, PCR fragment in a pQE-30 vector with the His6-tag replaced by the strep-tag; Pre-labelled with Strep-Tactin conjugated to horse radish peroxidase for the far-Western
T1 sequence (looked up): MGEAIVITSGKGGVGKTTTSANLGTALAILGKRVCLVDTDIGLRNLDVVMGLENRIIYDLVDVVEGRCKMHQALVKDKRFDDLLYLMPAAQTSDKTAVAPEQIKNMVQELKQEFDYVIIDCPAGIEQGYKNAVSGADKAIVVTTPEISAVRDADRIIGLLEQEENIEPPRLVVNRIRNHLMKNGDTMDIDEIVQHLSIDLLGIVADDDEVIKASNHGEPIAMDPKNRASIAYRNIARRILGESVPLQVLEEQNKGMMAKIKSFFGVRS
Put plainly: far-Western; PtkA, MinC and TkmA separated by 12% SDS-PAGE, transferred to nitrocellulose and renatured; probed with Strep-tagged MinD labelled with Strep-Tactin-HRP in TBS-T (50 mM Tris pH 7.5, 150 mM NaCl, 0.05% Tween 20) with 1% BSA; AEC staining. To be noted: both partners purified.

B1: MinC (purified) (natural protein, B. subtilis 168, UniProt Q01463 1-226, looked up)
chain: MKTKKQQYVTIKGTKNGLTLHLDDACSFDELLDGLQNMLSIEQYTDGKGQKISVHVKLGNRFLYKEQEEQLTELIASKKDLFVHSIDSEVITKKEAQQIREEAEIISVSKIVRSGQVLQVKGDLLLIGDVNPGGTVRAGGNIFVLGSLKGIAHAGFNGNNQAVIAASEMLPTQLRINHVLNRSPDHIQKGNEMECAYLDTDGNMVIERLQHLAHLRPDLTRLEGGM
notes: MinC of B. subtilis 168
As for B1, the binding result is “binds”.
